Positions count from the first letter of the chain named.
T1: soluble human IL-11 receptor extracellular domain, his-tagged (human, UniProt Q14626 24-370)
T1 chain: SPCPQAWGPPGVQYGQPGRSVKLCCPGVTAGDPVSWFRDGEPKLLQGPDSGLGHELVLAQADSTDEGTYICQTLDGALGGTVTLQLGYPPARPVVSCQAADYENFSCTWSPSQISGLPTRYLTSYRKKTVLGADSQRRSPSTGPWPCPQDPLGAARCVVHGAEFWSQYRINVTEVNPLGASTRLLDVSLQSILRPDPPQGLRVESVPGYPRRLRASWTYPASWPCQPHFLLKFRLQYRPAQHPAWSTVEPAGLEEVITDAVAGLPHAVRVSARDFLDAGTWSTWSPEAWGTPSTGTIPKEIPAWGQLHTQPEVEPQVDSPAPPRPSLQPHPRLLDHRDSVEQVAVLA

B1: yeast-displayed IL-11 IPR (ligand)
chain: PGPPPGPPRVSPDPRAELDSIVLLTRSLLADTRQLAAQLRDKFPADGDHNLDSLPTPAMSARALGALQLPGVLTRLRADLLSYLRHVQWLRRAGGSSLKTLEPELGTLQARLDRLLRRLQLLMSRLALPQPPPDPPAPPLAPPSSAWGGIRAAHAILGGLHLTLDWAVRGLLLLKTRL
B2: yeast-displayed IL-11 GIPRDM (ligand)
chain: B1 chain with D19G, G71D, V72M
B3: yeast-displayed wild-type human IL-11 (ligand)
chain: B1 chain with I21T, P57L, R62G
B4: yeast-displayed IL-11 GIPRD (ligand)
chain: B1 chain with D19G, G71D

Biological target: T1, soluble human IL-11 receptor …
Assay: FACS

Binder	Kd [nM]
B1	0.22
B2	0.29
B3	8.2
B4	0.19
